We go through one substance from patent US8445662B2, “Mycobacterium tuberculosis fusion protein and uses thereof” (The 309th Hospital, The People's Liberation Army, priority 2006, dated 2013).

The conditions of the data set: guinea pig, in vivo.

In the case of “Bovine serum albumin (BSA): positive control group in the guinea pig anaphylaxis test”, the “Averaged weight (g), during excitation” value is given as 447.1 ± 41.4 g; the “Averaged weight (g), sensitized upon the last injection” value is 380.6 ± 23.6 g; the “Reaction level + (number of guinea pigs)” value was 0; the “Reaction level ++ (number of guinea pigs)” value amounted to 0. Besides, the “Reaction level +++ (number of guinea pigs)” value came out at 3, the “Reaction level ++++ (number of guinea pigs)” value stood at 0 and the “Reaction level − (number of guinea pigs)” value turned out to be 3.
